The record followed here is patent US8703143 (PHILOGEN S P A, dated 2014).

In one test the target is T1, mouse B-FN (mouse, UniProt P11276 33-2477, limits assumed).
T1 construct: also called mouse B+ fibronectin
Kind of test: immunohistochemistry.

The target in test [1] is T2, native FN 110 kD (B-) thermolysin fragment (human, UniProt P02751-1 722-1630, limits assumed).
T2 construct: domain: thermolysin treated FN domain 4, without ED-B; also called 110 kD protein
Kind of test: ELISA. For orientation: In an ELISA, binding on a coated surface is turned into a signal by an enzyme label.

Test [2] addresses T3, recombinant FN domain 6 (human, UniProt P02751 1086-1172, limits assumed).
T3 construct: domain: FN-6; also called rec FN-6; rec FN6
The test is described as follows: ELISA.

For test [3], the target named is T4, recombinant ED-B domain of human fibronectin with a carboxy terminal hexahistidine tag (human, UniProt P02751 1266-1356).
T4 construct: domain: ED-B; In BIAcore chemically immobilised at the N-terminal amino group; also called rec ED-B; recombinant ED-B peptide
T4 sequence (P02751 other isoform, or with tags, fused parts or gaps limits assumed): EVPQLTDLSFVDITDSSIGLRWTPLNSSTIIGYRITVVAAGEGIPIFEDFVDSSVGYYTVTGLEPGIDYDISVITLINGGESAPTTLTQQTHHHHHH
Kind of test: BIAcore, monomeric scFv on immobilised antigen; Kd = koff/kon. On the procedure:
(§1) Binding of monovalent scFv at various concentrations in the 0.1-1 μM range in PBS was measured on a BIAcore machine (Pharmacia Biosensor), using the following antigens: (i) 1000 Resonance Units (RU) of biotinylated recombinant FN fragment 7B89 immobilised on a streptavidin coated chip, which was bound specifically by 250 RU of scFv; (ii) 200 RU of recombinant ED-B, chemically immobilised at the N-terminal amino group, which was bound specifically by 600 RU of scFv; (iii) 3500 RU of ED-B-rich fibronectin WI38VA (see Example 3), which was bound specifically by 150 RU of scFv. Kinetic analysis of the data was performed according to the manufacturers' instructions. On the basis of qualitative BIAcore analysis of antibody-containing supernatants, one affinity-matured version of each scFv clone was selected: clone CGS-1 from selection with the 78B9 fragment and CGS-2 from selection with ED-B recombinant FN fragment. The association rate constants ($kon$) and dissociation rate constants ($koff$) are shown in Table 1, together with the calculated equilibrium dissociation constants (Kd) of both scFvs and the original clone 28SI. […] The improvement was due mainly to a slower kinetic dissociation constant (-10^-4 s^-1), as measured with monomeric antibody preparations (not shown).
For orientation: In SPR one partner is held on a chip, and binding of the other changes the refractive index at the surface.

Test [4] deals with T5, recombinant FN fragment 7B89 (human, UniProt P02751 1173-1537, limits assumed, biotinylated for BIAcore (sites not given)).
T5 construct: domain: type III homology repeats 7B89; also called rec FN7B89; 78B9 [sic]
T5 sequence (P02751 other isoform, or with tags, fused parts or gaps limits assumed): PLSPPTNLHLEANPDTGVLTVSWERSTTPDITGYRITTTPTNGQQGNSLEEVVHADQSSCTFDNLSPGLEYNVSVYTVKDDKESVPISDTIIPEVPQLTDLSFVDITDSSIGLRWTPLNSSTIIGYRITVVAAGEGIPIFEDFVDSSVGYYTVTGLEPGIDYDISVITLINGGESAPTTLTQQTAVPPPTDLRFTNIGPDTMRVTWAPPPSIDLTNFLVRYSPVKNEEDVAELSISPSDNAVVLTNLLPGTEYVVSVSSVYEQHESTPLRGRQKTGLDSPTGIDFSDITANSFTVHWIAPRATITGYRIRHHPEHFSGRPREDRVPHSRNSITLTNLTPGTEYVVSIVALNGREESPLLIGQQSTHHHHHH
The description is as above. On the procedure: as §1

Test [5] has as its target T6, fibronectin purified from the conditioned medium of the SV40-transformed cell line WI38VA13 (human, UniProt P02751 32-2477).
T6 construct: mature; Mixture of isoforms, most of them B+; also called FN WI38VA; WI38VA FN
Described as above. On the procedure: as §1

Test [6] addresses T4, recombinant ED-B domain of human …. Kind of test: BIAcore, monomeric scFv on immobilised antigen. The procedure:
as §1

Test [7] deals with T5, recombinant FN fragment 7B89. The test is described as follows: BIAcore, monomeric scFv on immobilised antigen. The procedure: as §1
Test [8] has as its target T6, fibronectin purified from the …. Kind of test: BIAcore, monomeric scFv on immobilised antigen. On the procedure: as §1
In test [9] the target is T7, 85 kD thermolysin fragment of FN from WI38VA cells (human, UniProt P02751 722-1351, limits assumed).
T7 construct: domain: 85 kD fragment spanning repeats 2-7 in addition to the N-terminus of ED-B; also called 85 kD fragment; 85 kD domain
T7 sequence (P02751 722-1351 limits assumed): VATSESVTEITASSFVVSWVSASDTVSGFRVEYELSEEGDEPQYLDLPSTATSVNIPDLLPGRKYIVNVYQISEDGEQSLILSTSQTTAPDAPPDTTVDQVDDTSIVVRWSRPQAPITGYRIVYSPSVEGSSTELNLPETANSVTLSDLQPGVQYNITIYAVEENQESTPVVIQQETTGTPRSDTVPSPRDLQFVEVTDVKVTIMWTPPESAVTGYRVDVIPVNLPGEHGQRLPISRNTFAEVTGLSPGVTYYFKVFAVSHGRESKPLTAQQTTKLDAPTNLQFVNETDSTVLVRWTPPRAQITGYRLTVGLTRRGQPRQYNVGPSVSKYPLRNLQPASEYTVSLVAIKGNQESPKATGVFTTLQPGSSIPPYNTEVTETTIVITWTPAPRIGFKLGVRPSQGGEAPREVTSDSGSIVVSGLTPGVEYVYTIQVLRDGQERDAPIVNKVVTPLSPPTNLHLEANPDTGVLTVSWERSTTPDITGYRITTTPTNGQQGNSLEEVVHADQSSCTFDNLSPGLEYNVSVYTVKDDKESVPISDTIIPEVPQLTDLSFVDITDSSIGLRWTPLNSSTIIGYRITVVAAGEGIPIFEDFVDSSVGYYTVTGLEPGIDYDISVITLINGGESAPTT
Kind of test: immunoblot. The procedure:
(§2) The antigens used for ELISA and immunoblotting were prepared as follows. FN was purified from human plasma and from the conditioned medium of the WI38VA13 cell line as previously reported (Zardi et al, 1987). Purified FNs were digested with thermolysin (protease type X; Sigma Chemical Co.) as reported by Carnemolla et al (1989). Native FN 110 kD (B−) and native FN 120 kD (B+) fragments (see FIG. 2) were purified from a FN digest as previously reported (Borsi et al, 1991). The large isoform of tenascin-C was purified as reported by Saginati et al (1992). Recombinant proteins were expressed and purified as described in Example 1. SDS-PAGE and Western blotting were carried out as described by Carnemolla et al (1989).
(§3) On the left hand side of FIG. 2B is a Coomassie stained gel of the protein fractions analysed by immunoblotting. Plasma FN (lane 1) and thermolysin digests of the protein (lane 3, containing the 110 kD protein, and lane 4, containing digested 110 kD protein) were not recognised by CGS-1 and CGS-2. In contrast, ED-B-rich FN from WI38VA cells, both intact (lane 2) and after increasing thermolysin digestion (lanes 5, 6 and 7) was recognised by both scFv fragments. […]
In general terms: Immunoblotting shows a protein as a band on a membrane.

In test [10] the target is T8, recombinant FN fragment 789 (human, UniProt P02751-1 1173-1446, limits assumed).
T8 construct: domain: type III homology repeats 789; the text treats it as lacking ED-B; also called rec FN789
T8 sequence (P02751 other isoform, or with tags, fused parts or gaps limits assumed): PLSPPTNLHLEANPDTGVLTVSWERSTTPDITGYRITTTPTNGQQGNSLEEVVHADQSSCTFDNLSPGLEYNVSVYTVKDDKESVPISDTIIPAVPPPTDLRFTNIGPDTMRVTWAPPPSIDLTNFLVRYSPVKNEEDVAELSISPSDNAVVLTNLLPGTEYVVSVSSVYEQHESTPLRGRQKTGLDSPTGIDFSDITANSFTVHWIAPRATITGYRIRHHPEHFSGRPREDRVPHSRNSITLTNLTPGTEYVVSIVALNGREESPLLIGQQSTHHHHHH
The test is described as follows: ELISA on coated antigen, background subtracted. The procedure: (§4) All antigens used in ELISA were diluted in PBS to between 50-100 μg/ml and coated at 4° C. overnight onto Immuno-Plate wells (Nunc, Roskilde, Denmark). Unbound antigen was removed with PBS and plates were then blocked with PBS containing 3% (w/v) bovine serum albumin (BSA) for 2 h at 37° C. This was followed by four washes with PBS containing 0.05% Tween 20 (PBST). Antibodies were then allowed to bind at 37° C. for 1.5 h; scFvs were preincubated with an antiserum directed against the tag sequence: mAb M2 [Kodak, New Haven Conn.] for the FLAG tag or 9E10 [ATCC, Rockville, Md.] for the myc tag. Control antibodies tested were mAbs BC-1 and IST-6. After four washes with PBST, the plates were incubated for 1 h at 37° C. with 1:2000 diluted (in PBST+3% BSA) biotinylated goat anti-mouse IgG (Bio-SPA Division, Milan, Italy). The washes were repeated and Streptavidin-biotinylated alkaline phosphatase complex (Bio-SPA Division, Milan, Italy) was added (1:800 diluted in PBST containing 2 mM MgCl2) for 1 h at 37° C. The reaction was developed using Phosphatase substrate tablets (Sigma) in 10% diethanolamine, pH 9.8 and the optical density was read at 405 nm.

The target in test [11] is T2, native FN 110 kD (B-) thermolysin …. Kind of test: ELISA on coated antigen, background subtracted. The procedure:
as §4

The target in test [12] is T9, native FN 120 kD (B+) thermolysin fragment (human, UniProt P02751 722-1721, limits assumed).
T9 construct: domain: thermolysin treated FN domain 4, containing ED-B; also called 120 kD protein; 120 kD domain
Kind of test: ELISA on coated antigen, background subtracted. The procedure:
as §4

The target of test [13] is T4, recombinant ED-B domain of human …. The test is described as follows: ELISA on coated antigen, background subtracted. The procedure: as §4
Test [14] addresses T5, recombinant FN fragment 7B89. The test is described as follows: ELISA on coated antigen, background subtracted. The procedure:
as §4

The target in test [15] is T3, recombinant FN domain 6. Kind of test: ELISA on coated antigen, background subtracted. The procedure: as §4
The target of test [16] is T6, fibronectin purified from the …. The test is described as follows: ELISA on coated antigen, background subtracted. The procedure: as §4
The target of test [17] is T8, recombinant FN fragment 789. The test is described as follows: immunoblot of recombinant FN proteins expressed in E. coli. The procedure:
The fine specificity of CGS-1 and CGS-2 was investigated further by immunoblotting using recombinant FN fragments and fusion proteins with or without the ED-B sequence. The FN fusion proteins were prepared as described by Carnemolla et al (1989). The results of these experiments are shown in FIG. 3; for the association of the schematic diagram to the structure of the domains of human FN, see Carnemolla et al, 1992.

The next test concerns the target T10, chicken B-FN (chicken, UniProt P11722 22-2483, limits assumed).
T10 construct: also called chicken B+ fibronectin
Kind of test: immunohistochemistry.

The target in test [18] is T2, native FN 110 kD (B-) thermolysin …. The test is described as follows: immunoblot. On the procedure: as §2, §3

Residue numbers refer to the chain shown, from its start.

T6 sequence (P02751 32-2477): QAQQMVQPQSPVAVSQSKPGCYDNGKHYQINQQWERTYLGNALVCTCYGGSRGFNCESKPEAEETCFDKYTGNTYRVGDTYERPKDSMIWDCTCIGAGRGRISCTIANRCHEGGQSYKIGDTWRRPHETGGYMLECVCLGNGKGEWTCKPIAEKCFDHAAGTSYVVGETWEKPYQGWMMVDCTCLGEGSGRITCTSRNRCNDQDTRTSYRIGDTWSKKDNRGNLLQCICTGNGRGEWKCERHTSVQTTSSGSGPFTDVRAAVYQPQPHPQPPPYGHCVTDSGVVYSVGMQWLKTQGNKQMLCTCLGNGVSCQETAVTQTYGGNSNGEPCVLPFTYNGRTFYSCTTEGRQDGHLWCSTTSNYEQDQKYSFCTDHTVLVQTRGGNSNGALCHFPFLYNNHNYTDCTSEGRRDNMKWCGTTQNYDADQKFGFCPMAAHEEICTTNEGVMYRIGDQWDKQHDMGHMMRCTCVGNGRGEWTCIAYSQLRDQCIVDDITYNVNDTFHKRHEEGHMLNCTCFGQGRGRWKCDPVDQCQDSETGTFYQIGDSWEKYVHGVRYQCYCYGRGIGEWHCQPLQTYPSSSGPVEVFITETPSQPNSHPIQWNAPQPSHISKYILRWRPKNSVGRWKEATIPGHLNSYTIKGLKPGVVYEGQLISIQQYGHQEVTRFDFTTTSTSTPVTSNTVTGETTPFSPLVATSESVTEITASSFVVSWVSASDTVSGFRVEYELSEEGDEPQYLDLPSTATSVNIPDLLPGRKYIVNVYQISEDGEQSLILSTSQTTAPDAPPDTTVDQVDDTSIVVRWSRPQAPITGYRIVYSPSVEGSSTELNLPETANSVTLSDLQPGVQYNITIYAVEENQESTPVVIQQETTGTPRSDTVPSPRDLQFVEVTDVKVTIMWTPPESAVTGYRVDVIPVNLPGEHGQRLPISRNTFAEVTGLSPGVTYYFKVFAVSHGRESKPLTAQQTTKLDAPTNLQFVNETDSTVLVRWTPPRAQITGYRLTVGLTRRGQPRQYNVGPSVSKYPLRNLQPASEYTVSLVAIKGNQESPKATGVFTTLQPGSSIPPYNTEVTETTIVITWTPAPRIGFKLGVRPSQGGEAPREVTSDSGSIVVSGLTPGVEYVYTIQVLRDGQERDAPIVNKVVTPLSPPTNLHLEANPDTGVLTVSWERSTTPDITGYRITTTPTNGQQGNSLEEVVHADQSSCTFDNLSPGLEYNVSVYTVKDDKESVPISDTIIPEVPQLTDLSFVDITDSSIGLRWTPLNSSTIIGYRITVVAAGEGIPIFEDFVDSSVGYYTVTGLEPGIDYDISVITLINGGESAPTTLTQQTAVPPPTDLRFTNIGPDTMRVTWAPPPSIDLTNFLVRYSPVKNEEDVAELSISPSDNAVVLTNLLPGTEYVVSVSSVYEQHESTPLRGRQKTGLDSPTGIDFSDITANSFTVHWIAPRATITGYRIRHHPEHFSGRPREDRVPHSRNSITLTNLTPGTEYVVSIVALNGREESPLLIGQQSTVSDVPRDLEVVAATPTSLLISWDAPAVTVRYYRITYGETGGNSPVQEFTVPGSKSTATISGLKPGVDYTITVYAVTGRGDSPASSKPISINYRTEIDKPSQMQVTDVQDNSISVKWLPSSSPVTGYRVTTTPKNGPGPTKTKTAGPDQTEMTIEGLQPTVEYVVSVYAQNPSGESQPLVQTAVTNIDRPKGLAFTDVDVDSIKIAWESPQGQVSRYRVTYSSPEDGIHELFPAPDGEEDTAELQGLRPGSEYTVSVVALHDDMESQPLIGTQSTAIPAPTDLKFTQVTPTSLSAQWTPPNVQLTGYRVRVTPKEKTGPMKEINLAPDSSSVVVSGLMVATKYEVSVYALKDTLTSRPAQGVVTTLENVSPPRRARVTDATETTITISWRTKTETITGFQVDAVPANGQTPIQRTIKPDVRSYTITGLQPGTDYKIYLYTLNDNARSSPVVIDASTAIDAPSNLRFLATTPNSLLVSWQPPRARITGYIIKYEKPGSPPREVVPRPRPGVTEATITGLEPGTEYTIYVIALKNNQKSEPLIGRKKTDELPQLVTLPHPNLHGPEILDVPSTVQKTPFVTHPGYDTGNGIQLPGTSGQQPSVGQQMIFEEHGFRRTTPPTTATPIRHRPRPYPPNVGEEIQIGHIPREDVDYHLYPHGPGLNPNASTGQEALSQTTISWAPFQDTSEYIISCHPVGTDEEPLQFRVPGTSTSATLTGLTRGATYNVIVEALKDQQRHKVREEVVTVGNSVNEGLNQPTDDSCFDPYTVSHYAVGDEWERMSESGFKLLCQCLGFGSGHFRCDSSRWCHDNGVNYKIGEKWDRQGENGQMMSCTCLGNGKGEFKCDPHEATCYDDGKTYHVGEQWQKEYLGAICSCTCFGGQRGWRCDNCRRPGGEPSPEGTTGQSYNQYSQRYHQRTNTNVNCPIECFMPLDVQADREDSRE
T2 sequence (P02751 other isoform, or with tags, fused parts or gaps limits assumed): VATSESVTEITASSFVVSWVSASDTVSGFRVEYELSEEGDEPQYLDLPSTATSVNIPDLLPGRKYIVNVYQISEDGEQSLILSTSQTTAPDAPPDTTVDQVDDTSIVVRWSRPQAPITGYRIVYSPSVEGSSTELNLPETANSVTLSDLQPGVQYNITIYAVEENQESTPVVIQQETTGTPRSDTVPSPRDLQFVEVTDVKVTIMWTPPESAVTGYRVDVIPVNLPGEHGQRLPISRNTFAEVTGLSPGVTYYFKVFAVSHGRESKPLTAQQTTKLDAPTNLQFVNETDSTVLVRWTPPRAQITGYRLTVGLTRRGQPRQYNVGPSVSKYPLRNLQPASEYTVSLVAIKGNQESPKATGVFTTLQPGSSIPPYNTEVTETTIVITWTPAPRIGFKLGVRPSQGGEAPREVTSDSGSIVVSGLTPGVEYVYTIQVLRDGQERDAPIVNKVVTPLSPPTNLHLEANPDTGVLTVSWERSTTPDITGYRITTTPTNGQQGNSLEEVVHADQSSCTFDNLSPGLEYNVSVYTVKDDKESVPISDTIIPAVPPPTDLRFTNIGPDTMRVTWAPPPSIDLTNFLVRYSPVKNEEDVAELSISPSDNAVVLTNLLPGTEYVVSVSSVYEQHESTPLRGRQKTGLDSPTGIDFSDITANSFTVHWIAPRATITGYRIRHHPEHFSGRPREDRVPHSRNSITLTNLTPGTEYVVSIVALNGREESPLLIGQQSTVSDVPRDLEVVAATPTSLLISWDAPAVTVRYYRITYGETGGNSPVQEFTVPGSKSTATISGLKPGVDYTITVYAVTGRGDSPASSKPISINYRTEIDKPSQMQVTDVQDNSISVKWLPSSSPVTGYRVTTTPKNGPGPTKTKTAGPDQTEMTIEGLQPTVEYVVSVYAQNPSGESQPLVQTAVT
T3 sequence (P02751 other isoform, or with tags, fused parts or gaps limits assumed): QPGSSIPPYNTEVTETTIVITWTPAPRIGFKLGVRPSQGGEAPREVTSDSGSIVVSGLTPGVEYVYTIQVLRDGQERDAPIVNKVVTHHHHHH

B1: scFv CGS-1 (scFv, V domains shown)
VH: QVQLVESGGGLVQPGGSLRLSCAVSGFTFSSYAMSWVRQAPGKGLEWVSAISGSGGSTYYADSVKGRFTISRDNSKNTLYLQMNSLRAEDTAVYYCARSLPKWGQGTLVTVSR
VL: SSELTQDPAVSVALGQTVRITCQGDSLRSYYASWYQQKPGQAPVLVTYGKNNRPSGIPDRFSGSSSGNTASLTITGAQAEDEADYYCNSSPVVLNGVVFGGGTKLTVL
notes: claims 6 and 8 say that 8 is a VH and 10 a VL; VH-linker-VL order follows from the cloning primers; Monomeric, FPLC-purified, in BIAcore; in the ELISA detected through a FLAG or myc tag
A word on the Kd: it is the concentration at which binding is half-saturated. What is called koff is the first-order rate constant of dissociation. What is called kon is the rate constant with which the complex forms. With B1, the binding result was “binds” in the test with mouse B-FN; “no binding” in test [1]; “no binding” in the test with recombinant FN domain 6 [2]; “no binding” in test [9]; “no binding” in test [17]. Also, the Kd in test [3] was determined as 54 nM; in [4], 35 nM; in test [5], 12 nM. Also, the dissociation rate constant (koff) in test [6] was determined as 0.007 s⁻¹; in test [7], 0.0039 s⁻¹; in [8], 0.005 s⁻¹. Besides, the kon in test [6] came out at 130000 M⁻¹ s⁻¹; in test [7] it was 110000 M⁻¹ s⁻¹; in test [8], 410000 M⁻¹ s⁻¹. The “OD at 405 nm” value was found to be 0.01 OD 405 nm in [10]; 0.03 OD 405 nm in test [11]; 0.82 OD 405 nm in [12]; 1.21 OD 405 nm in [13]; 1.11 OD 405 nm in test [14]; 0.01 OD 405 nm with recombinant FN domain 6 [15]. The “OD at 405 nm” value in test [16] is 1.16 OD 405 nm.

B2: scFv CGS-2 (scFv, V domains shown)
VH: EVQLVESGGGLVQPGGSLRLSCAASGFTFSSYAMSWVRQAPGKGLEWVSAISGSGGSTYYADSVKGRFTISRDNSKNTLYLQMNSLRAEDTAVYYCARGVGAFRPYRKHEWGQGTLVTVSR
VL: B1 VL with T47I, I74T, V92F, V93E, L94H, G96L
notes: claims 7 and 9 say that 9 is a VH and 11 a VL; Monomeric, FPLC-purified, in BIAcore
For B2, the binding result was “binds” in the test with mouse B-FN; “binds” with chicken B-FN; “no binding” in the test with recombinant FN domain 6 [2]; “no binding” in [18]; “no binding” in test [17]. The equilibrium dissociation constant (Kd) in test [3] came to 1.1 nM; in test [4] it was 2.1 nM; in [5] it was 2.4 nM. Besides, the koff in [6] was determined as 0.00015 s⁻¹; in [7] it was 0.00023 s⁻¹; in test [8], 0.00065 s⁻¹. In addition, the kon stood at 130000 M⁻¹ s⁻¹ in test [6], 110000 M⁻¹ s⁻¹ in test [7] and 290000 M⁻¹ s⁻¹ in [8]. In addition, the “OD at 405 nm” value amounted to 0.01 OD 405 nm in test [10]; 0.01 OD 405 nm in test [11]; 0.81 OD 405 nm in [12]; 1.32 OD 405 nm in [13]; 1.02 OD 405 nm in test [14]; 0.01 OD 405 nm with recombinant FN domain 6 [15]. Besides, the “OD at 405 nm” value in [16] was found to be 0.72 OD 405 nm.
